Data taken from the supplement of paper PMC9112550, “Optimization of the antimicrobial peptide Bac7 by deep mutational scanning” (BMC Biology, 2022).

System: Escherichia coli TOP10
Assay: shrunken log2 fold change of peptide-encoding DNA abundance (4.5 h post-induction vs induction); higher = less antimicrobial activity (less host growth inhibition)
Details: time post-induction: 4.5 h; library: site-saturation at positions 5, 18, 19, 20
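Note: peptides expressed intracellularly from a pBAD plasmid library in pooled LB shake-flask culture, induced with 0.3% L-arabinose, DNA abundance read by NGS, three biological replicates, DESeq2 with apeglm shrinkage.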

Row | Sequence | shrunken log2 fold change
1 | RRIRVRPPRLPRPRPRPTGMPRP | 0.0943
2 | RRIRVRPPRLPRPRPRPTHFPRP | -0.266
3 | RRIRVRPPRLPRPRPRPTHIPRP | 0.268
4 | RRIRVRPPRLPRPRPRPTHPPRP | 0.378
5 | RRIRVRPPRLPRPRPRPTIGPRP | 0.178
6 | RRIRVRPPRLPRPRPRPTKYPRP | -0.523
7 | RRIRVRPPRLPRPRPRPTLAPRP | 0.797
8 | RRIRVRPPRLPRPRPRPTLKPRP | 0.151
9 | RRIRVRPPRLPRPRPRPTMTPRP | 0.11
10 | RRIRVRPPRLPRPRPRPTNLPRP | 0.0684
11 | RRIRVRPPRLPRPRPRPTPAPRP | 0.448
12 | RRIRVRPPRLPRPRPRPTPTPRP | 0.349
13 | RRIRVRPPRLPRPRPRPTRAPRP | 0.665
14 | RRIRVRPPRLPRPRPRPTRLPRP | 0.568
15 | RRIRVRPPRLPRPRPRPTSFPRP | -0.0728
16 | RRIRVRPPRLPRPRPRPTVLPRP | -0.0891
17 | RRIRVRPPRLPRPRPRPTVYPRP | -0.0885
18 | RRIRVRPPRLPRPRPRPTYFPRP | -0.0832
19 | RRIRVRPPRLPRPRPRPTYQPRP | -0.388
20 | RRIRVRPPRLPRPRPRPVCLPRP | 0.619
21 | RRIRVRPPRLPRPRPRPVEPPRP | 0.218
22 | RRIRVRPPRLPRPRPRPVFKPRP | -0.196
23 | RRIRVRPPRLPRPRPRPVGVPRP | 0.321
24 | RRIRVRPPRLPRPRPRPVMGPRP | 0.216
25 | RRIRVRPPRLPRPRPRPVMHPRP | -0.0179

Row | Sequence | shrunken log2 fold change
26 | RRIRVRPPRLPRPRPRPVNLPRP | -0.322
27 | RRIRVRPPRLPRPRPRPVNNPRP | -0.39
28 | RRIRVRPPRLPRPRPRPVPIPRP | -0.0742
29 | RRIRVRPPRLPRPRPRPVRGPRP | 0.767
30 | RRIRVRPPRLPRPRPRPVRMPRP | -0.0731
31 | RRIRVRPPRLPRPRPRPVRWPRP | 0.805
32 | RRIRVRPPRLPRPRPRPVSDPRP | -0.0859
33 | RRIRVRPPRLPRPRPRPVSFPRP | -0.126
34 | RRIRVRPPRLPRPRPRPVSLPRP | 0.106
35 | RRIRVRPPRLPRPRPRPVTLPRP | -0.227
36 | RRIRVRPPRLPRPRPRPVTWPRP | -0.14
37 | RRIRVRPPRLPRPRPRPVVRPRP | 0.129
38 | RRIRVRPPRLPRPRPRPVWFPRP | -0.0288
39 | RRIRVRPPRLPRPRPRPVYEPRP | -0.127
40 | RRIRVRPPRLPRPRPRPWAEPRP | -0.0172
41 | RRIRVRPPRLPRPRPRPWDYPRP | -0.0898
42 | RRIRVRPPRLPRPRPRPWGCPRP | 0.076
43 | RRIRVRPPRLPRPRPRPWHEPRP | -0.127
44 | RRIRVRPPRLPRPRPRPWHPPRP | -0.0956
45 | RRIRVRPPRLPRPRPRPWLSPRP | -0.0434
46 | RRIRVRPPRLPRPRPRPWMYPRP | -0.225
47 | RRIRVRPPRLPRPRPRPWNQPRP | 0.0232
48 | RRIRVRPPRLPRPRPRPWPIPRP | -0.0661
49 | RRIRVRPPRLPRPRPRPWPWPRP | 0.197
50 | RRIRVRPPRLPRPRPRPWQCPRP | -0.00264

Row | Sequence | shrunken log2 fold change
51 | RRIRVRPPRLPRPRPRPWRGPRP | 0.378
52 | RRIRVRPPRLPRPRPRPWRPPRP | 0.328
53 | RRIRVRPPRLPRPRPRPWTHPRP | -0.104
54 | RRIRVRPPRLPRPRPRPWTVPRP | -0.782
55 | RRIRVRPPRLPRPRPRPWVMPRP | -0.212
56 | RRIRVRPPRLPRPRPRPWWDPRP | 0.00445
57 | RRIRVRPPRLPRPRPRPWWLPRP | -0.0366
58 | RRIRVRPPRLPRPRPRPWYKPRP | -0.252
59 | RRIRVRPPRLPRPRPRPYALPRP | -0.848
60 | RRIRVRPPRLPRPRPRPYCLPRP | -0.564
61 | RRIRVRPPRLPRPRPRPYDSPRP | -0.126
62 | RRIRVRPPRLPRPRPRPYGNPRP | -0.0775
63 | RRIRVRPPRLPRPRPRPYHKPRP | -0.0829
64 | RRIRVRPPRLPRPRPRPYHLPRP | -0.184
65 | RRIRVRPPRLPRPRPRPYIQPRP | -0.472
66 | RRIRVRPPRLPRPRPRPYKMPRP | -0.428
67 | RRIRVRPPRLPRPRPRPYLPPRP | -0.453
68 | RRIRVRPPRLPRPRPRPYLRPRP | -0.165
69 | RRIRVRPPRLPRPRPRPYMKPRP | -1.04
70 | RRIRVRPPRLPRPRPRPYMPPRP | -0.78
71 | RRIRVRPPRLPRPRPRPYMRPRP | 0.162
72 | RRIRVRPPRLPRPRPRPYNVPRP | -0.0185
73 | RRIRVRPPRLPRPRPRPYSRPRP | -0.0134
74 | RRIRVRPPRLPRPRPRPYSTPRP | -0.00968
75 | RRIRVRPPRLPRPRPRPYVYPRP | -0.0156

Row | Sequence | shrunken log2 fold change
76 | RRIRVRPPRLPRPRPRPYWAPRP | -0.0239
77 | RRIRWRPPRLPRPRPRPAAFPRP | 0.334
78 | RRIRWRPPRLPRPRPRPAATPRP | 2.26
79 | RRIRWRPPRLPRPRPRPACAPRP | 0.766
80 | RRIRWRPPRLPRPRPRPACDPRP | 0.788
81 | RRIRWRPPRLPRPRPRPACNPRP | -0.144
82 | RRIRWRPPRLPRPRPRPADQPRP | 0.0591
83 | RRIRWRPPRLPRPRPRPAEPPRP | 0.256
84 | RRIRWRPPRLPRPRPRPAGLPRP | 0.289
85 | RRIRWRPPRLPRPRPRPAGPPRP | 0.235
86 | RRIRWRPPRLPRPRPRPAGRPRP | 0.695
87 | RRIRWRPPRLPRPRPRPAGVPRP | 0.66
88 | RRIRWRPPRLPRPRPRPAGWPRP | 0.922
89 | RRIRWRPPRLPRPRPRPAHVPRP | -0.0191
90 | RRIRWRPPRLPRPRPRPAIPPRP | 0.332
91 | RRIRWRPPRLPRPRPRPAKLPRP | 0.0566
92 | RRIRWRPPRLPRPRPRPAMKPRP | -0.0119
93 | RRIRWRPPRLPRPRPRPANWPRP | 0.273
94 | RRIRWRPPRLPRPRPRPARYPRP | -0.0422
95 | RRIRWRPPRLPRPRPRPASRPRP | -0.00682
96 | RRIRWRPPRLPRPRPRPAVWPRP | 0.32
97 | RRIRWRPPRLPRPRPRPAYEPRP | -0.0308
98 | RRIRWRPPRLPRPRPRPAYTPRP | 0.0906
99 | RRIRWRPPRLPRPRPRPCDEPRP | -0.0781
100 | RRIRWRPPRLPRPRPRPCDMPRP | -0.173

Row | Sequence | shrunken log2 fold change
101 | RRIRWRPPRLPRPRPRPCDQPRP | -0.0328
102 | RRIRWRPPRLPRPRPRPCEVPRP | -0.00149
103 | RRIRWRPPRLPRPRPRPCFYPRP | -0.249
104 | RRIRWRPPRLPRPRPRPCGIPRP | 0.0389
105 | RRIRWRPPRLPRPRPRPCHKPRP | -0.0267
106 | RRIRWRPPRLPRPRPRPCHQPRP | -0.0867
107 | RRIRWRPPRLPRPRPRPCIAPRP | 0.00205
108 | RRIRWRPPRLPRPRPRPCKIPRP | -0.114
109 | RRIRWRPPRLPRPRPRPCKMPRP | -0.184
110 | RRIRWRPPRLPRPRPRPCNAPRP | -0.0905
111 | RRIRWRPPRLPRPRPRPCQNPRP | -0.118
112 | RRIRWRPPRLPRPRPRPCRIPRP | -0.113
113 | RRIRWRPPRLPRPRPRPCSMPRP | -0.565
114 | RRIRWRPPRLPRPRPRPCTAPRP | 0.119
115 | RRIRWRPPRLPRPRPRPCTKPRP | 0.311
116 | RRIRWRPPRLPRPRPRPCTSPRP | -0.174
117 | RRIRWRPPRLPRPRPRPCWHPRP | -0.259
118 | RRIRWRPPRLPRPRPRPCYCPRP | -0.247
119 | RRIRWRPPRLPRPRPRPDCEPRP | 2.54
120 | RRIRWRPPRLPRPRPRPDCRPRP | 0.0695
121 | RRIRWRPPRLPRPRPRPDDNPRP | 0.174
122 | RRIRWRPPRLPRPRPRPDDTPRP | 0.222
123 | RRIRWRPPRLPRPRPRPDEAPRP | 0.0325
124 | RRIRWRPPRLPRPRPRPDEKPRP | 0.0625
125 | RRIRWRPPRLPRPRPRPDELPRP | 0.402

Row | Sequence | shrunken log2 fold change
126 | RRIRWRPPRLPRPRPRPDFDPRP | 0.0791
127 | RRIRWRPPRLPRPRPRPDFIPRP | -0.395
128 | RRIRWRPPRLPRPRPRPDFYPRP | -0.11
129 | RRIRWRPPRLPRPRPRPDGKPRP | 0.00353
130 | RRIRWRPPRLPRPRPRPDHAPRP | 0.391
131 | RRIRWRPPRLPRPRPRPDHSPRP | -0.198
132 | RRIRWRPPRLPRPRPRPDKLPRP | 0.161
133 | RRIRWRPPRLPRPRPRPDKVPRP | 0.0749
134 | RRIRWRPPRLPRPRPRPDLLPRP | 0.0586
135 | RRIRWRPPRLPRPRPRPDMEPRP | -0.0114
136 | RRIRWRPPRLPRPRPRPDMFPRP | -0.0661
137 | RRIRWRPPRLPRPRPRPDPYPRP | -0.198
138 | RRIRWRPPRLPRPRPRPDQDPRP | -0.0971
139 | RRIRWRPPRLPRPRPRPDQLPRP | 0.066
140 | RRIRWRPPRLPRPRPRPDQTPRP | -0.00176
141 | RRIRWRPPRLPRPRPRPDSLPRP | -0.12
142 | RRIRWRPPRLPRPRPRPDSYPRP | 0.00709
143 | RRIRWRPPRLPRPRPRPDTAPRP | -0.192
144 | RRIRWRPPRLPRPRPRPDTFPRP | -0.0255
145 | RRIRWRPPRLPRPRPRPDTIPRP | -0.019
146 | RRIRWRPPRLPRPRPRPDTTPRP | 0.255
147 | RRIRWRPPRLPRPRPRPDWQPRP | 0.00408
148 | RRIRWRPPRLPRPRPRPDYCPRP | -0.0321
149 | RRIRWRPPRLPRPRPRPEANPRP | 1.14
150 | RRIRWRPPRLPRPRPRPECHPRP | 0.563
